The values below are quoted from earlier work in PMC10970614.

Data set [1] has as its target glycophorin (Homo sapiens) (UniProt P02724).
For data set [2], the target named is integrin beta 3 cytoplasmic domain (Homo sapiens) (UniProt P05106). Put plainly: SPR. (In general: SPR reads the build-up and loss of mass on a sensor chip optically.)
The target of data set [3] is integrin beta 2 cytoplasmic domain (Homo sapiens) (UniProt P05107). Put plainly: SPR.
The target of data set [4] is integrin alpha L cytoplasmic domain (Homo sapiens) (UniProt P20701). In words: SPR.
Chain of integrin alpha L cytoplasmic domain (Homo sapiens) (P20701 1112-1170): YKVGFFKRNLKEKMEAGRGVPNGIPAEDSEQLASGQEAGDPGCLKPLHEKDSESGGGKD
For data set [5], the target named is integrin alpha X cytoplasmic domain (Homo sapiens) (UniProt P20702). In words: SPR.
Chain of integrin alpha X cytoplasmic domain (Homo sapiens) (P20702 1129-1163): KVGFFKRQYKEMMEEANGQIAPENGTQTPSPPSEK
For data set [6], the target named is integrin alpha M cytoplasmic domain (Homo sapiens) (UniProt P11215). Put plainly: SPR.
Chain of integrin alpha M cytoplasmic domain (Homo sapiens) (P11215 1129-1152): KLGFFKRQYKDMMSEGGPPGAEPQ

Chain of LtxA (P16462 whole entry): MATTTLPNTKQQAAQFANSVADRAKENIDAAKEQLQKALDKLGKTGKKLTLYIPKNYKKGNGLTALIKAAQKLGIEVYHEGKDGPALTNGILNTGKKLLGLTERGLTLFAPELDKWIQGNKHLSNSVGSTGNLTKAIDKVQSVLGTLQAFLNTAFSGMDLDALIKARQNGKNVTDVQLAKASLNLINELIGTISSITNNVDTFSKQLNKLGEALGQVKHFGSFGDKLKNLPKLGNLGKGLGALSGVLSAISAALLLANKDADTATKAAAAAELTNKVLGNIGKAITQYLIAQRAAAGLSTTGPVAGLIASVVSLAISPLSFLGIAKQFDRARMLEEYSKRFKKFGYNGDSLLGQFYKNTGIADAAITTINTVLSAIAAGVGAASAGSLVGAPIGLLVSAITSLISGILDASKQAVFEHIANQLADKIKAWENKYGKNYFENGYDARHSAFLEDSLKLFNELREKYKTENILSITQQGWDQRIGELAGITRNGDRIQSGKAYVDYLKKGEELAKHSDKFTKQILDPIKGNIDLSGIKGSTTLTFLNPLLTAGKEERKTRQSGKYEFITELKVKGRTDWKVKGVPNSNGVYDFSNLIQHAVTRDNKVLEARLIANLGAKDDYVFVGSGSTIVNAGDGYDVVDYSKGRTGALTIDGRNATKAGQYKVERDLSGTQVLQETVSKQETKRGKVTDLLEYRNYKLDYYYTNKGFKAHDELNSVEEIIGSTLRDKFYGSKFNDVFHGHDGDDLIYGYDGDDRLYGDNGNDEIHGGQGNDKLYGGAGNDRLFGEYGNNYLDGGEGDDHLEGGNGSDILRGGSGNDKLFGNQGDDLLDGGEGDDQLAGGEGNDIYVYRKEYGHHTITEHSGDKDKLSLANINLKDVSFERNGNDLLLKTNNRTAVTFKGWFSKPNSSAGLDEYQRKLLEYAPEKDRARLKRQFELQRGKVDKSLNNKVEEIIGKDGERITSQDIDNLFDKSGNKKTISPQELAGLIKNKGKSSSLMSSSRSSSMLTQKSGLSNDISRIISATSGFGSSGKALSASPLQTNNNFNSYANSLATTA
Chain of integrin beta 2 cytoplasmic domain (Homo sapiens) (P05107 724-769): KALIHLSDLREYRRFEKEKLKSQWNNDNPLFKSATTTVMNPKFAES
Chain of HlyA (P08715 whole entry): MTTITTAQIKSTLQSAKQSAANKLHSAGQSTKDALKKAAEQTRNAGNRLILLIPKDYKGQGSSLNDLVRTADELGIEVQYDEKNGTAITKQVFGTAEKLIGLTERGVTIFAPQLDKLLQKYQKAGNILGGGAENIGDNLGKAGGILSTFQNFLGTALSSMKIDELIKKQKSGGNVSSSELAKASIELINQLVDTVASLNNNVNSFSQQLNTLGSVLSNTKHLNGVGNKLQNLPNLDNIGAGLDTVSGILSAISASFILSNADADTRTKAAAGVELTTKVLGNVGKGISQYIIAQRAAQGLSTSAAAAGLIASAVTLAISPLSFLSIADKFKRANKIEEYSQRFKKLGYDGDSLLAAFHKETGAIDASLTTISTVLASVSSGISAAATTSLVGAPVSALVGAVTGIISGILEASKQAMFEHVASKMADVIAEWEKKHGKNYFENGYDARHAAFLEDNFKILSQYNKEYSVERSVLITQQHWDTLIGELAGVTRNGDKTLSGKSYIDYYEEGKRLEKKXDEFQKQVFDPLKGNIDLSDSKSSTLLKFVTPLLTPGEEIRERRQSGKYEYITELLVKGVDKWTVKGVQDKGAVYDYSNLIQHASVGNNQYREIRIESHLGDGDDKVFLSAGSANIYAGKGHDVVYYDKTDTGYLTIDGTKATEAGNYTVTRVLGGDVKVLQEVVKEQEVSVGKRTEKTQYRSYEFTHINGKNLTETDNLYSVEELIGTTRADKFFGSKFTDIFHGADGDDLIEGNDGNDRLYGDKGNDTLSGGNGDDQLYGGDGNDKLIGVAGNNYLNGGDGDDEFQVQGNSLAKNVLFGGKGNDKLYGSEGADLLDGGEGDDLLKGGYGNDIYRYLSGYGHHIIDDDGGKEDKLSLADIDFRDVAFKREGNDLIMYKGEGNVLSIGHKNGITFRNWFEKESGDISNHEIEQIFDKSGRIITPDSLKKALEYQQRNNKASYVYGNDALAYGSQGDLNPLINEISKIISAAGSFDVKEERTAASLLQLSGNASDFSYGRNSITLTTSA
Chain of integrin beta 3 cytoplasmic domain (Homo sapiens) (P05106 742-788): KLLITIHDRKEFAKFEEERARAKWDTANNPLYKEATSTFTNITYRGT

A word on the Kd: it is the concentration at which binding is half-saturated. With HlyA (from UniProt P08715), the Kd in data set [1] was 610 nM.

For LtxA (from UniProt P16462), the Kd is 230 nM in data set [2]; 4.2 nM in data set [3]; 15 nM in data set [4]; 180 nM in data set [5]; 400 nM in data set [6].
